# Reference: the supplement of paper PMC10567573
# B1: NET1 (parent)
# chain: IKRTIRVLDVNNQSFREQEEPSNK
# Variants of: B1
# Assay: protein stability index of a GFP-peptide fusion (GPS, HEK-293T) (PSI 1-6); higher = more stable
# Conditions: c terminus: a fixed tail appended
# 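Further: lentivirally expressed fusions sorted by FACS into six bins by GFP to DsRed ratio, PSI derived from sequencing read proportions per bin multiplied by bin number.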
row,Variant,protein stability index
1,Q13V,3.67
2,Q13Y,2.04
3,Q13M,3.8
4,Q13D,3.56
5,Q13R,3.27
6,Q13A,4.18
7,Q13G,3.8
8,Q13E,4.26
9,Q13L,2.33
10,Q13N,3.69
11,Q13P,3.35
12,Q13H,3.28
13,Q13F,2.72
14,R3V,1.73
15,R3F,1.75
16,R3P,4.57
17,R3I,1.37
18,R3M,2.08
19,R3C,2.69
20,R3N,4.86
21,R3L,1.9
22,R3G,4.1
23,R3W,1.49
24,R3S,4.71

row,Variant,protein stability index
1,R3Y,2.19
2,R3Q,4.44
3,R3H,4.39
4,R3T,4.02
5,T4N,4.13
6,T4F,2.88
7,T4E,4.96
8,T4Q,3.86
9,T4Y,3.09
10,T4L,2.59
11,T4C,3.51
12,T4D,4.51
13,T4I,1.79
14,T4V,2.51
15,T4S,4.09
16,Q18R,3.1
17,Q18S,2.79
18,Q18N,3.52
19,Q18T,3.37
20,Q18D,4.15
21,Q18L,3.06
22,Q18C,3.09
23,Q18H,3.7
24,Q18V,3.43

row,Variant,protein stability index
1,Q18K,2.91
2,Q18I,3.1
3,Q18G,3.59
4,Q18P,3.49
5,Q18F,2.52
6,Q18Y,2.66
7,E20Y,2.75
8,E20T,3.41
9,E20C,3.27
10,E20W,2.31
11,E20D,3.23
12,E20L,3.16
13,E20F,2.97
14,E20M,3.16
15,E20R,2.93
16,E20S,3.57
17,E20H,3.05
18,E20N,3.52
19,E20Q,2.8
20,I1T,4.49
21,I1M,3.63
22,I1Q,3.69
23,I1C,4.76
24,I1P,3.94

row,Variant,protein stability index
1,I1V,3.54
2,I1E,4.07
3,I1N,3.61
4,I1A,3.82
5,I1K,4.14
6,I1D,4.58
7,I1R,3.73
8,I1Y,4.1
9,I1H,4.81
10,I1S,3.99
11,I1W,3.45
12,D9E,3.91
13,D9R,3.54
14,D9Y,2.41
15,D9N,4.11
16,D9G,3.7
17,D9T,2.9
18,D9A,3.31
19,D9M,1.91
20,D9W,2.89
21,D9L,1.77
22,D9H,4.23
23,D9F,2.24
24,D9Q,3.26

row,Variant,protein stability index
1,D9C,2.94
2,N23I,3.94
3,N23S,3.97
4,N23V,4.04
5,N23M,3.41
6,N23A,2.99
7,N23Y,2.07
8,N23E,3.96
9,N23K,3.56
10,N23C,3.8
11,N23G,3.56
12,N23F,2.96
13,N23P,2.87
14,N23H,2.28
15,V7G,3.92
16,V7A,3.3
17,V7F,3.35
18,V7I,4.02
19,V7H,4.25
20,V7C,3.62
21,V7T,4.21
22,V7K,4.37
23,V7L,3.46
24,V7N,4.5

row,Variant,protein stability index
1,V7W,2.41
2,V7S,4.28
3,V7E,3.74
4,V7Q,5.07
5,V7P,4.22
6,F15E,4.79
7,F15Y,3.79
8,F15I,3.96
9,F15D,4.86
10,F15P,4.67
11,F15L,3.4
12,F15T,4.09
13,F15V,3.79
14,F15Q,4.29
15,F15K,4.02
16,F15N,3.82
17,F15A,4.27
18,F15C,4.18
19,F15R,4.79
20,F15H,4.44
21,E17S,3.16
22,E17C,3.27
23,E17P,2.92
24,E17W,1.74

row,Variant,protein stability index
1,E17L,3.15
2,E17M,2.92
3,E17A,3.6
4,E17R,3.42
5,E17K,3.11
6,E17I,3.22
7,E17H,3.59
8,E17N,3.16
9,E17T,3.03
10,E17V,2.8
11,E17Q,3.14
12,K24C,3.4
13,K24T,4
14,K24N,3.99
15,K24M,3.82
16,K24P,3.55
17,K24S,4.07
18,K24F,2.98
19,K24W,2.61
20,K24V,3.73
21,K24L,4.23
22,K24D,3.79
23,K24Q,4.2
24,K24E,4.37

row,Variant,protein stability index
1,K24H,4.11
2,K24Y,3.61
3,K24A,3.46
4,N12P,3.41
5,N12D,4.21
6,N12H,3.83
7,N12G,4.14
8,N12R,3.14
9,N12K,2.72
10,N12E,3.98
11,N12I,3.51
12,N12C,3.16
13,N12V,2.97
14,N12A,3.38
15,N12L,3.25
16,N12W,2.63
17,N12M,3.29
18,V10E,4.79
19,V10M,4
20,V10N,4.46
21,V10R,4.04
22,V10C,3.82
23,V10P,3.21
24,V10K,4.35

row,Variant,protein stability index
1,V10G,4.22
2,V10F,3.19
3,V10T,4.23
4,V10L,3.85
5,V10A,3.38
6,V10Y,4.06
7,V10I,3.87
8,S22W,1.92
9,S22Q,2.8
10,S22R,3.85
11,S22D,3.99
12,S22N,3.97
13,S22C,3.59
14,S22T,3.14
15,S22L,2.64
16,S22M,4.02
17,S22K,3.87
18,S22Y,3.34
19,S22E,3.42
20,S22H,3.83
21,S22P,3.64
22,S22F,2.55
23,S22V,3.23
24,K2G,4.51

row,Variant,protein stability index
1,K2S,3.29
2,K2Y,2.6
3,K2I,3.05
4,K2V,3.33
5,K2P,4.47
6,K2E,4.01
7,K2A,3.74
8,K2Q,4.63
9,K2W,3.11
10,K2N,4.34
11,K2R,2.93
12,N11Y,4.06
13,N11I,1.85
14,N11H,3.62
15,N11E,4.51
16,N11M,2.83
17,N11R,4.41
18,N11L,2.26
19,N11G,2.99
20,N11F,2.61
21,N11T,3.41
22,N11K,4.44
23,N11D,4.47
24,N11Q,4.34

row,Variant,protein stability index
1,N11P,4.16
2,N11S,4.22
3,S14P,2.9
4,S14T,3.52
5,S14K,3.24
6,S14W,3.01
7,S14M,3.21
8,S14N,3.47
9,S14E,3.79
10,S14D,3.68
11,S14Q,3.91
12,S14I,3.64
13,P21L,3.93
14,P21D,3.97
15,P21G,2.72
16,P21C,3.54
17,P21M,3.11
18,P21F,2.35
19,P21V,3.22
20,P21Q,3.34
21,P21R,3.68
22,P21W,3.12
23,P21H,3.75
24,P21A,3.29

row,Variant,protein stability index
1,P21T,3.57
2,P21K,4.15
3,R6C,3.35
4,R6I,1.99
5,R6W,2.42
6,R6D,4.77
7,R6N,3.62
8,R6E,4.65
9,R6V,2.77
10,R6G,4.51
11,R6Q,4.16
12,R6K,4.04
13,R6M,3.32
14,R6F,2.68
15,R6A,2.88
16,R6P,4.87
17,R6T,3.92
18,I5D,4.91
19,I5N,4.08
20,I5L,2.94
21,I5E,5.05
22,I5K,4.75
23,I5C,4.41
24,I5Y,3.95

row,Variant,protein stability index
1,I5S,4.56
2,I5M,2.55
3,I5H,4.69
4,E19N,2.89
5,E19W,1.75
6,E19G,4.21
7,E19H,2.9
8,E19Y,2.43
9,E19I,2.38
10,E19C,2.74
11,E19M,3.15
12,E19S,2.44
13,E19K,3.88
14,E19L,2.27
15,E19V,2.68
16,E19P,3.44
17,L8K,4.46
18,L8Y,3.96
19,L8P,4.93
20,L8C,4.93
21,L8H,4.93
22,L8W,3.39
23,L8E,5.07
24,L8D,4.92

row,Variant,protein stability index
1,L8F,3.83
2,L8I,2.96
3,L8A,4.45
4,L8R,4.68
5,L8N,4.57
6,L8M,3.75
7,R16A,4
8,R16P,3.42
9,R16V,3.96
10,R16K,4.21
11,R16C,3.3
12,R16M,3.41
13,R16D,4.47
14,R16E,3.94
15,R16S,4.06
16,R16I,3.83
17,R16T,3.85
18,R16F,3.47
19,R16Q,3.43
20,R16G,3.94
21,R16Y,3.4
22,R16L,3.35
